Assay results: US20240059797A1 (GRITSTONE BIO, published 2024)
Substitutions are numbered along the chain they refer to.

B1: G7(2E09) Fab (Fab, V domains shown)
VH: QVQLVQSGAEVKKPGSSVKVSCKASRYTFTSYDINWVRQAPGQGLEWMGRIIPMLNIANYAPKFQGRVTITADESTSTAYMELSSLRSEDTAVYYCARALIFGVPLLPYGMDVWGQGTTVTVSS
VL: not shown
notes: Fab
B2: G7(1A03) Fab (Fab, V domains shown)
VH: QVQLVQSGAEVKKPGASVKVSCKASGYTFTSQYMHWVRQAPGQGLEWMGWISPNNGDTNYAQKFQGRVTMTRDTSTSTVYMELSSLRSEDTAVYYCARELGYYYGMDVWGQGTTVTVSS
VL: DIQMTQSPSSLSASVGDRVTITCRASQSISTWLAWYQQKPGKAPKLLIYYASSLQSGVPSRFSGSGSGTDFTLTISSLQPEDFATYYCQQSYSFPYTFGQGTKVEIK
notes: Fab
B3: G7(2C02) Fab (Fab, V domains shown)
VH: QVQLVQSGAEVKKPGASMKVSCKASGYTFTTDGISWVRQAPGQGLEWMGRIYPHSGYTEYAKKFKGRVTMTRDTSTSTVYMELSSLRSEDTAVYYCARQDGGAFAFDIWGQGTMVTVSS
VL: DIQMTQSPSSLSASVGDRVTITCQASQDIFKYLNWYQQKPGKAPKLLIYAASTLQSGVPSRFSGSGSGTDFTLTISSLQPEDFATYYCQQSYSTPPTFGQGTRLEIK
notes: Fab
B4: G8(2E04) Fab (Fab, V domains shown)
VH: QVQLVQSGAEVKKPGSSVKVSCKASGGTFSSYGVSWVRQAPGQGLEWMGWISPYSGNTDYAQKFQGRVTITADESTSTAYMELSSLRSEDTAVYYCARGLYYMDVWGKGTTVTVSS
VL: B2 VL with T31S, Y50D, S53N, Q55E, S56T, F94T, Y96L, Q100G, V104L
notes: Fab
B5: G8(2C10) Fab (Fab, V domains shown)
VH: QVQLVQSGAEVKKPGASVKVSCKASGYTFTSYYMHWVRQAPGQGLEWMGWINPYSGGTNYAQKFQGRVTMTRDTSTSTVYMELSSLRSEDTAVYYCAKGGIYYGSGSYPSWGQGTLVTVSS
VL: B2 VL with S28D, I29V, Y50A, Y92H, F94T, Y96Q
notes: Fab
B6: G8(1C11) Fab (Fab, V domains shown)
VH: QVQLVQSGAEVKKPGASVKVSCKASGGTLSSYPINWVRQAPGQGLEWMGWISTYSGHADYAQKLQGRVTMTRDTSTSTVYMELSSLRSEDTAVYYCARSYDYGDYLNFDYWGQGTLVTVSS
VL: B3 VL with F30S, K31N, T53S, T94I, Q100G, R103K, L104V, E105D
notes: Fab; also called G8-P1C11
B7: G10(5C08) scFv (scFv, V domains shown)
VH: QVQLVQSGAEVKKPGASVKVSCKASGYNFTGYYMHWVRQAPGQGLEWMGIIAPSDGSTNYAQKFQGRVTMTRDTSTSTVYMELSSLRSEDTAVYYCARETGDDAFDIWGQGTMVTVSS
VL: not shown
B8: G5(1H11) scFv (scFv, V domains shown)
VH: EVQLLESGGGLVKPGGSLRLSCAASGFTFSDYYMSWVRQAPGKGLEWVSYISSSSSYTNYADSVKGRFTISRDDSKNTLYLQMNSLKTEDTAVYYCARDVVANFDYWGQGTLVTVSS
VL: EIVMTQSPATLSVSPGERATLSCRASQSVSSNLAWYQQKPGQAPRLLIYAASARASGIPARFSGSGSGTEFTLTISSLQSEDFAVYYCQQYGSWPRTFGQGTKVEIK
B9: G5(3G01) scFv (scFv, V domains shown)
VH: QVQLVQSGAEVKKPGASVKVSCKASGGTFSGYLVSWVRQAPGQGLEWMGWINPNSGGTNTAQKFQGRVTMTRDTSTSTVYMELSSLRSEDTAVYYCAREGYGMDVWGQGTTVTVSS
VL: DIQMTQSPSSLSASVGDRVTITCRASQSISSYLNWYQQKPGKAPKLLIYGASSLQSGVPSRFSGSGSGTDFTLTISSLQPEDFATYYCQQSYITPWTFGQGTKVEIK
B10: G5(2B10) scFv (scFv, V domains shown)
VH: QVQLVQSGAEVKKPGASVKVSCKASGGTFSSYAISWVRQAPGQGLEWMGWMNPDSGSTGYAQRFQGRVTMTRDTSTSTVYMELSSLRSEDTAVYYCARGHSSGWYYYYGMDVWGQGTTVTVSS
VL: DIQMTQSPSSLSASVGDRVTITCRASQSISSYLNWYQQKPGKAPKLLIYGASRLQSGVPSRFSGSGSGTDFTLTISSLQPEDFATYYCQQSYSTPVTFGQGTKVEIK
B11: G5(4B02) scFv (scFv, V domains shown)
VH: QVQLVQSGAEVKKPGASVKVSCKASGYTFTGYYMHWVRQAPGQGLEWMGWMNPNIGNTGYAQKFQGRVTMTRDTSTSTVYMELSSLRSEDTAVYYCARGIADSGSYYGNGRDYYYGMDVWGQGTTVTVSS
VL: DIVMTQSPDSLAVSLGERATINCKTSQSVLYRPNNENYLAWYQQKPGQPPKLLIYQASIREPGVPDRFSGSGSGTDFTLTISSLQAEDVAVYYCQQYYTTPYTFGQGTKLEIK
B12: G5(3G05) scFv (scFv, V domains shown)
VH: QVQLVQSGAEVKKPGASVKVSCKASGYTFTNYYMHWVRQAPGQGLEWMGIINPSGGSTSYAQKFQGRVTMTRDTSTSTVYMELSSLRSEDTAVYYCARSWFGGFNYHYYGMDVWGQGTTVTVSS
VL: DIQMTQSPSSLSASVGDRVTITCQASEDISNHLNWYQQKPGKAPKLLIYDALSLQSGVPSRFSGSGSGTDFTLTISSLQPEDFATYYCQQANSFPFTFGPGTKVDIK
B13: G5(1D06) scFv (scFv, V domains shown)
VH: QVQLVQSGAEVKKPGASVKVSCKASGYTFTSYDINWVRQAPGQGLEWMGWINPNSGDTKYSQKFQGRVTMTRDTSTSTVYMELSSLRSEDTAVYYCARDGTRYYGMDVWGQGTTVTVSS
VL: not shown
B14: G5(1C12) scFv (scFv, V domains shown)
VH: QVQLVQSGAEVKKPGSSVKVSCKASGGTFSNFGVSWLRQAPGQGLEWMGGIIPILGTANYAQKFQGRVTITADESTSTAYMELSSLRSEDTAVYYCATPTNSGYYGPYYYYGMDVWGQGTTVTVSS
VL: B2 VL with T31S, Y50A, S53T, F94I, Y96L, Q100G
notes: also called G5-P1C12
B15: G5(1B12) scFv (scFv, V domains shown)
VH: EVQLLESGGGLVQPGGSLRLSCAASGFTFSNSDMNWVRQAPGKGLEWVASISSSGGYINYADSVKGRFTISRDNSKNTLYLQMNSLRAEDTAVYYCAKVNWNDGPYFDYWGQGTLVTVSS
VL: B2 VL with T31S, Y50A, S91A, Y92N, Y96L, Q100G
B16: G5(1E05) scFv (scFv, V domains shown)
VH: QVQLVQSGAEVKKPGASVKVSCKASGYTFTSYNMHWVRQAPGQGLEWMGWINPNSGGTNYAQKFQGRVTMTRDTSTSTVYMELSSLRSEDTAVYYCARDVMDVWGQGTTVTVSS
VL: B2 VL with S28G, T31N, W32Y, A34N, S91T, S93M, F94M
B17: G5(4E04) scFv (scFv, V domains shown)
VH: QVQLVQSGAEVKKPGASVKVSCKASGGTFSSYGISWVRQAPGQGLEWMGWINPNSGVTKYAQKFQGRVTMTRDTSTSTVYMELSSLRSEDTAVYYCARGDYYFDYWGQGTLVTVSS
VL: B2 VL with T31R, W32F, A34N, Y50G, S53R, L54P, F94T, Y96L
B18: G5(3G08) scFv (scFv, V domains shown)
VH: QVQLVQSGAEVKKPGASVKVSCKASGYIFRNYPMHWVRQAPGQGLEWMGWINPDSGGTKYAQKFQGRVTMTRDTSTSTVYMELSSLRSEDTAVYYCARDNGVGVDYWGQGTLVTVSS
VL: B2 VL with S28G, T31N, W32Y, Y50A, S93I, F94T, V104L
B19: G5(4B01) scFv (scFv, V domains shown)
VH: QVQLVQSGAEVKKPGSSVKVSCKASGGTFSSYAISWVRQAPGQGLEWMGGIIPIVGTANYAQKFQGRVTITADESTSTAYMELSSLRSEDTAVYYCARGGSYYYYGMDVWGQGTTVTVSS
VL: not shown

Biological target: HLA-A*02:01_… (HLA-PEPTIDE target G7), recombinant biotinylated complex (human, enzymatically biotinylated (BirA))
Experiment: BLI, pHLA on sensor, Fab titrated, 1:1 model

Binder	Kd [nM]	koff [s⁻¹]	kon [M⁻¹ s⁻¹]
B1	11.8	0.00212	185000
B2	532	0.0994	197000
B3	531	0.0543	104000

Biological target: HLA-A*02:01_… (HLA-PEPTIDE target G8), recombinant complex (human, enzymatically biotinylated (BirA) for screening and functional assays)
Experiment: BLI, pHLA on sensor, Fab titrated, 1:1 model
Method: Binding affinity was assessed by bio-layer interferometry (BLI) using an Octet Qke (ForteBio). Briefly, biotinylated pHLA complexes in kinetics buffer were loaded onto streptavidin sensors for 300 seconds, at concentrations which gave the optimal nm shift response (approximately 0.6 nm) for each Fab at the highest concentration used. The ligand-loaded tips were subsequently equilibrated in the kinetics buffer for 120 seconds. The ligand-loaded biosensors were then dipped for 200 seconds in the Fab solution titrated into 2-fold dilutions. […] The dissociation step in the kinetics buffer was measured for 200 seconds. Data were analyzed using the ForteBio data analysis software using a 1:1 binding model.

Binder	Kd [nM]	koff [s⁻¹]	kon [M⁻¹ s⁻¹]
B4	286	0.0789	545000
B5	17.7	0.0013	75000
B6	178	0.0338	190000

Biological target: HLA-A*01:01_… (HLA-PEPTIDE target G10), recombinant biotinylated complex (human, enzymatically biotinylated (BirA))
Experiment: scFv PPE ELISA

Binder	fold selective binding to target pHLA over minipool of negative control pHLAs [fold]
B7	≥ 3

Biological target: T1, HLA-B*35:01_… (HLA-PEPTIDE target G5), recombinant biotinylated complex (human, enzymatically biotinylated (BirA))
T1 construct: also called G5-pHLA
Experiment: scFv PPE ELISA

Binder	fold selective binding to target pHLA over minipool of negative control pHLAs [fold]
B8	≥ 3
B9	≥ 3
B10	≥ 3
B11	≥ 3
B12	≥ 3
B13	≥ 3
B14	≥ 3
B15	≥ 3
B16	≥ 3
B17	≥ 3
B18	≥ 3
B19	≥ 3
